Source: patent publication US20220396632A1 (VERSEAU THERAPEUTICS, published 2022)
Positions count from the first letter of the chain named. Non-standard residues stand in square brackets, D forms with d. No end group written: not given here. *: point of attachment. Biotin = O=C1N[C@H]2[C@H](CS[C@H]2CCCCC(=O)*)N1; sY = N[C@@H](Cc1ccc(OS(=O)(=O)O)cc1)C(=O)O

T1: SulfoCCK biotin peptide (human)
T1 construct: also called sulfotyrosine CCK peptide
T1 peptide: SHRISDRD[sY]MGWMDFGGK(Biotin)

T2: Sulfotyrosine CCR2b biotin peptide (human)
T2 construct: also called CCR2b peptide
T2 peptide: TTFFD[sY]D[sY]GAPSHGGK(Biotin)

T3: Sulfotyrosine D6 biotin peptide (human)
T3 construct: also called D6 peptide
T3 peptide: ENSSFY[sY][sY]D[sY]LDEVAFGGK(Biotin)

T4: SulfoTyr C4 peptide (not fully specified; Y4, Y7 and Y9 sulfated (SO3); C-terminal biotin)
T4 construct: also called C4 alpha chain peptide; human sulfotyrosinylated C4 peptide
T4 peptide: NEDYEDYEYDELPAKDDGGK

T5: Sulfotyr fibrinogen γ peptide (not fully specified; Y8 and Y12 sulfated (SO3); C-terminal biotin)
T5 construct: also called Fibrinogen gamma peptide; human sulfotyrosinylated fibrinogen peptide
T5 peptide: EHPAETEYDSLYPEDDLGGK

T6: Biotin PSGL-1(42-62) peptide, unmodified (human, C-terminal Lys-biotin)
T6 construct: Residues 42-62 followed by GGGK-biotin; also called WT; wild-type
T6 peptide: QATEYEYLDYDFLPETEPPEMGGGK

T7: Scrambled Y42,52,63(SO3) PSGL-1(42-62) biotin peptide (sulfotyrosine at peptide positions 1, 11 and 22; C-terminal Lys-biotin)
T7 peptide: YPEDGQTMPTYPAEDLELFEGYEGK

T8: Biotin Y46,48,51(SO3) PSGL-1(42-62) peptide (human, sulfotyrosine at Y46, Y48 and Y51; C-terminal Lys-biotin)
T8 construct: also called fully sulfated N-terminal PSGL-1 peptide
T8 peptide: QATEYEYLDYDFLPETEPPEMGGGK

B1: 05A11 (antibody, IgG4, V domains shown)
VH: EVKLLESGGGVVQPGRSLRLSCAASGFSFSAYGMHWVRQAPGKGLEWVSSISGSGDGTYYADSVKGRFTISRDNSKNTLYLQMNSLRAEDAAVYYCAKSVKGRGYFFDYWGQGTLVTVSS
VL: DIVLTQSPSSLSASVGDRVTITCRASQSISSYLNWYQQKPGKAPKLLIYAASSLQSGVPSRFSGSGSGTDFTLSISNLQPEDFATYYCQQAYKFPRSFGGGTKVEFK
B2: 09A08 (antibody, IgG4, V domains shown)
VH: QVQLVQSGAAVKKPGESLKISCKGSGYTFSNYWIGWVRQMPGKGLEWMGIIYPGDSDTRYSPSFQGQVTISADKSISTAYLQWSSLKASDTAMYYCARHIVGPPKSAFDIWGQGTMVTVSS
VL: DIVMTQTPLSLPVTLGQPASISCSSSQGLQKRDGNTYLNWFQQRPGQSPRRLIYKVSNRDSGVPDRFSGSGSGTDFTLKISRVEAEDVGVYYCMQGTHWPWTFGQGTRVEIK
B3: 07E07 (antibody, IgG4, V domains shown)
VH: QVQLQQSGAEVKKPGASVKVSCKASGYTFTSYYMHWVRQAPGQGLEWMGIINTSSGSTKYAQRFQDRVTVTRDTSTTTVYMELNSLRSEDTAVYYCARGGRAYSGSFDNWGQGTLVTVSS
VL: B2 VL with I2V, T7S, S24R, G28S, Q30V, K31H, L38F, G96A, W101R, R108K
B4: 05D01 (antibody, V domains shown)
VH: QVTLRESGGALVQPGGSLRLSCAASGFPLRSNAMTWVRQAPGKGLEWVSDIRGNGASTYYADSVKGRFTISRDDSNNILFLQMNSLRAEDTAVYYCVGHGSSSYWGQGTLVTVSS
VL: DVVMTQSPLSLPVTLGQPASISCRSSQSLVYRDGNIYLNWFQQRPGQSPRRLIYKVSNRDSGVPDRFSGSGSGTDFTLKISRVEAEDVGVYYCMQLTHWPPGFAQGTKLEIK
B5: 09D04 (antibody, IgG4, V domains shown)
VH: QVQLQQSGGGLVQPGGSLTLSCVGSGFDFRSYAMSWVRQAPGKGLEWVSGINNSGSKTYYADFVKGRFSVSRDNSKNIVWLRMRSLRAEDTAVYYCARRTFGPPHAWGQGTMVTVSS
VL: DVVMTQSPLSLPVTPGEPASISCRSSQSLLHSNGYTYLEWYLHKPGQSPQLLIYLGSNRASGVPDRFSGSGSGTDFTLKISRVEAEDVGVYYCMHSLHIPFTFGPGTKVDIK
B6: 05H03 (antibody, IgG4, V domains shown)
VH: B5 VH
VL: DIVMTQSPLSLSVTPGEPASISCRSSQSLLHSNGYKYLDWYLQKPGQSPQLLIYMGSNRASGVPDRFSGSGSGTDFTLKISRVEAEDVGVYYCMQGLQSPLTFGGGTKVEIE
B7: 03F03 (antibody, V domains shown)
VH: QVQLQESGPGLVKPSETLSLTCTVSGGSISSSSYYWGWIRQPPGKGLEWIGSIYYSGSTYYNPSLKSRVTISVDTSKNQFSLKLSSVTAADTAVYYCARSRPRPWAFDIWGQGTMVTVSS
VL: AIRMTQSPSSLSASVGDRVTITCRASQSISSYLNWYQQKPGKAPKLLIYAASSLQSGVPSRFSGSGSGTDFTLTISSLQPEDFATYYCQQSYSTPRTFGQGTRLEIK
B8: 11D10 (antibody, IgG4, V domains shown)
VH: EVKLLESGGGLVQPGGSLRLSCAVSGFTFSTSAMIWVRQAPGKGLEWVSFISGSTSNTYYADSVKGRFTISRDNSKNTLYLQMNGLTAEDTAVYYCARGTAAATWGQGALVTVSS
VL: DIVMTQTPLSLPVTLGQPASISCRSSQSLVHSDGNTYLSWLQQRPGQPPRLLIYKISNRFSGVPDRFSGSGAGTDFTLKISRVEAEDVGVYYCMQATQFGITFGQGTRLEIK
B9: 05C02 (antibody, V domains shown)
VH: EVKLLESGGGVVQPGRSLRLSCAASGFTFKNFAMHWVRQAPGKGLEWVAVISYDGSSEDYADSVKGRFTLSRDNAKNSLYLQMNNLRAEDTAVYYCARGRRPDYWGQGTLVTVSS
VL: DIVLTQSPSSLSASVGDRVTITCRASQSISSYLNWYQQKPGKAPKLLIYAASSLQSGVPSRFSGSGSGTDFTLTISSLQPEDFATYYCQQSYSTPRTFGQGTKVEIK
B10: 05E08 (antibody, IgG4, V domains shown)
VH: EVQLVQSGGGVVQPGRSLRLSCAASGFTFSTYAMHWVRQAPGKGLEWVAVISYDGSNKYYADSVKGRFTISRDNSRNTLFLQMNSLRDEDTAVYYCAKRGTMIRGERSLDFWGQGTLVTVSS
VL: AIQMTQSPSFLSASVGDRVTITCRASQGINSWLAWYQQKPGTAPNLLIHAASTLQSGVPSRFSGSRSGTEFTLTISSLQPEDFATYYCQQLQSYPLTFGQGTRLEIK

Target: T1, SulfoCCK biotin peptide
Experiment: ELISA, 50 nM mAb
Protocol: (§1) Recombinant PSGL-1-hFc1 chimera protein consisting of PSGL-1's extracellular domain (ECD) served as a positive control. […] Primary antibody was added (25 ul per well) in duplicate at 50 nM in assay buffer (blocking buffer containing 0.05% Tween®20) into test and control (just blocked) wells and the plate incubated for 45 min at 37° C.

| Binder | binding normalized to PSGL-1 |
| --- | --- |
| B1 | 0.41 |
| B2 | 0.08 |
| B3 | 0.75 |
| B4 | 0.3 |
| B5 | 0.53 |
| B6 | 0.74 |
| B7 | 0.96 |
| B8 | 0.05 |
| B9 | 0.17 |
| B10 | 0.85 |

Target: T2, Sulfotyrosine CCR2b biotin peptide
Experiment: ELISA, 50 nM mAb
Protocol: as §1

| Binder | binding normalized to PSGL-1 |
| --- | --- |
| B1 | 0.09 |
| B2 | 0.08 |
| B3 | 0.75 |
| B4 | 0.17 |
| B5 | 0.37 |
| B6 | 0.45 |
| B7 | 1.21 |
| B8 | 0.04 |
| B9 | 0.06 |
| B10 | 0.85 |

Target: T3, Sulfotyrosine D6 biotin peptide
Experiment: ELISA, 50 nM mAb
Protocol: as §1

| Binder | binding normalized to PSGL-1 |
| --- | --- |
| B1 | 0.45 |
| B2 | 0.6 |
| B4 | 0.84 |
| B5 | 0.75 |
| B6 | 0.8 |
| B8 | 0.08 |
| B9 | 0.52 |

Target: T4, SulfoTyr C4 peptide
Experiment: ELISA, 50 nM mAb
Protocol: as §1

| Binder | binding normalized to PSGL-1 |
| --- | --- |
| B1 | 0.44 |
| B2 | 0.54 |
| B3 | 0.97 |
| B4 | 0.11 |
| B5 | 0.4 |
| B6 | 0.49 |
| B7 | 1.19 |
| B8 | 0.07 |
| B9 | 0.47 |
| B10 | 1 |

Target: T5, Sulfotyr fibrinogen γ peptide
Experiment: ELISA, 50 nM mAb
Protocol: as §1

| Binder | binding normalized to PSGL-1 |
| --- | --- |
| B1 | 0.87 |
| B2 | 0.14 |
| B3 | 1.04 |
| B4 | 0.89 |
| B5 | 0.49 |
| B6 | 0.68 |
| B7 | 1.33 |
| B8 | 0.26 |
| B9 | 0.42 |
| B10 | 1.05 |

Target: T6, Biotin PSGL-1(42-62) peptide, unmodified
Experiment: ELISA, immobilized biotin peptide
Method in brief: (§2)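 In this ELISA, half-well high binding plates (Corning Cat. #3690) received 3 ug/mL/25 ul per well of biotin-tagged PSGL-1 peptides covering residues 42 to 62, diluted in PBS, pH 7.4, and coated overnight at 4° C. Duplicate readings for each antibody were averaged and the average assay background was subtracted. PSGL-1 protein or peptide was the positive control.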

| Binder | EC50 | A450nm, 20 nM mAb |
| --- | --- | --- |
| B1 | ~500 nM |  |
| B2 | > 500 nM |  |
| B3 | > 500 nM |  |
| B4 |  | 1.33 A450nm |
| B5 | ~0.05 nM |  |
| B6 | ~0.02 nM |  |
| B7 | > 500 nM |  |
| B8 | 0.51 nM |  |
| B9 | 3 nM |  |
| B10 | > 500 nM |  |

Target: T7, Scrambled Y42,52,63(SO3) PSGL-1(42-62) …
Experiment: ELISA, immobilized biotin peptide
Method in brief: as §2

| Binder | binding result | A450nm, 20 nM mAb |
| --- | --- | --- |
| B1 | no binding (tested: 20 nM) |  |
| B2 | no binding (tested: 20 nM) |  |
| B3 | no binding (tested: 20 nM) | 0.01 A450nm |
| B4 | no binding (tested: 20 nM) | 0.01 A450nm |
| B5 | no binding (tested: 20 nM) | 0.05 A450nm |
| B6 | no binding (tested: 20 nM) | 0.04 A450nm |
| B7 | no binding (tested: 20 nM) | 0.03 A450nm |
| B8 | no binding (tested: 20 nM) |  |
| B9 | no binding (tested: 20 nM) |  |
| B10 | no binding (tested: 20 nM) | 0.01 A450nm |

Target: T8, Biotin Y46,48,51(SO3) PSGL-1(42-62) …
Experiment: ELISA, immobilized biotin peptide
Method in brief: as §2

| Binder | A450nm, 20 nM mAb | EC50 |
| --- | --- | --- |
| B1 | 2.52 A450nm | ~0.025 nM |
| B2 | 2.43 A450nm | 0.1 nM |
| B3 | 2.77 A450nm | 0.15 nM |
| B4 | 2.85 A450nm |  |
| B5 | 2.63 A450nm | 0.07 nM |
| B6 | 2.77 A450nm | ~0.02 nM |
| B7 | 2.54 A450nm | 0.08 nM |
| B8 | 2.52 A450nm | 0.65 nM |
| B9 | 2.8 A450nm | ~0.01 nM |
| B10 | 2.57 A450nm | ~0.01 nM |
